Reference: article PMC8724787, “The epitope arrangement on flavivirus particles contributes to Mab C10’s extraordinary neutralization breadth across Zika and dengue viruses” (Cell, 2021)

T1: DENV4_Burma/63632/1976 sE protein (aa 1-395) (Dengue virus 4 (strain Burma/63632/1976))
T1 construct: also called DENV4 sE
T1 chain: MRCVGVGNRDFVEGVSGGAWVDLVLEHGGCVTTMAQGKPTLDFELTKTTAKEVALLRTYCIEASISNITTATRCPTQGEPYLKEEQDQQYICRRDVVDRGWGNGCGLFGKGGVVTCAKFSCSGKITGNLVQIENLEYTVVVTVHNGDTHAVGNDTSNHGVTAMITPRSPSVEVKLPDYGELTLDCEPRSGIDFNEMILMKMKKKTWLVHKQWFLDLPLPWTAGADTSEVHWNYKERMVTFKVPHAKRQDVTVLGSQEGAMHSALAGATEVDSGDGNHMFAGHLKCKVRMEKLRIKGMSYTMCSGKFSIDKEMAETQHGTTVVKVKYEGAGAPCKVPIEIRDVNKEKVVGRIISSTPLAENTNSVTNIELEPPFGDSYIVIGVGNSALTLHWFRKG


Key:
[1] = biological target: T2, ZIKV-H/PF/2013 sE protein (aa 1-404) (Zika virus (strain H/PF/2013)); test: BLI
T2 construct: also called ZIKV sE; ZIKV (sE)2

[2] = biological target: T2, ZIKV-H/PF/2013 sE protein (aa 1-404); test: SEC-MALS; Superdex 200 10/300 GL; Tris 50 mM pH 8.0, NaCl 500 mM; about 150 ug protein; proteins alone and in complex; conditions: both partners purified
[3] = biological target: T1, DENV4_Burma/63632/1976 sE protein (aa …); test: crystal structure; conditions: both partners purified

Row | Binder | stoichiometry N [2] | other results
1 | K^L66A C10 mAb mutant (IgG1) (antibody, V domains shown, IgG1) VH: EVQLVESGAEVKKPGASVKVSCKASGYTFTSYAMHWVRQAPGQRLEWMGWINAGNGNTKYSQKFQDRVTITRDTSASTAYMELSSLRSEDTAIYYCARDKVDDYGDYWFPTLWYFDYWGQGTLVTVSS VL: QSALTQPASVSGSPGQSITISCTGTSSDVGGFNYVSWFQQHPGKAPKLMLYDVTSRPSGVSSRFSGSASGNTASLTISGLQAEDEADYYCSSHTSRGTWVFGGGTKLTVL | – | other [1]: 2 fold
2 | C10 bivalent F(ab')2 (other, human) VH: EVQLVESGAEVKKPGASVKVSCKASGYTFTSYAMHWVRQAPGQRLEWMGWINAGNGNTKYSQKFQDRVTITRDTSASTAYMELSSLRSEDTAIYYCARDKVDDYGDYWFPTLWYFDYWGQGTLVTVSS VL: QSALTQPASVSGSPGQSITISCTGTSSDVGGFNYVSWFQQHPGKAPKLMLYDVTSRPSGVSSRFSGSKSGNTASLTISGLQAEDEADYYCSSHTSRGTWVFGGGTKLTVL | 1 C10 molecule per sE dimer (2:2) | –
3 | C10 intact bivalent IgG1 (human monoclonal antibody EDE1 C10) (antibody, V domains shown) VH: EVQLVESGAEVKKPGASVKVSCKASGYTFTSYAMHWVRQAPGQRLEWMGWINAGNGNTKYSQKFQDRVTITRDTSASTAYMELSSLRSEDTAIYYCARDKVDDYGDYWFPTLWYFDYWGQGTLVTVSS VL: QSALTQPASVSGSPGQSITISCTGTSSDVGGFNYVSWFQQHPGKAPKLMLYDVTSRPSGVSSRFSGSKSGNTASLTISGLQAEDEADYYCSSHTSRGTWVFGGGTKLTVL | 1 C10 molecule per sE dimer (2:2) | –
4 | C10 single-chain variable fragment (scFv) (scFv, V domains shown) VH: EVQLVESGAEVKKPGASVKVSCKASGYTFTSYAMHWVRQAPGQRLEWMGWINAGNGNTKYSQKFQDRVTITRDTSASTAYMELSSLRSEDTAIYYCARDKVDDYGDYWFPTLWYFDYWGQGTLVTVSS VL: QSALTQPASVSGSPGQSITISCTGTSSDVGGFNYVSWFQQHPGKAPKLMLYDVTSRPSGVSSRFSGSKSGNTASLTISGLQAEDEADYYCSSHTSRGTWVFGGGTKLTVL | – | binding result [3]: binds
